For 1 molecule, Kd results are on record in paper PMC11813584, “An odorant-binding protein functions in fire ant social immunity interfacing with innate immunity” (Open Biology, 2025).

The assay concerns the target T1, SiOBP15, purified, His-tag removed (Solenopsis invicta).
T1 construct: the ORF cloned into pET28a; also called purified SiOBP15; SiOBP15 protein (ligand); source: E. coli BL21, purified (Ni-Sepharose Cl-6B agarose), His-tag removed by protease cleavage
The experiment in a line: SPR; open SPR; SiOBP15 coupled to a COOH chip until saturation, SiApoLp-III or SiFABP5 titrated as analyte; one-to-one model (TraceDrawer). The following applies: both partners purified.

B1: SiApoLp-III, purified, His-tag removed (natural protein)
chain: EQSGTQPQLSDYIRDAQTAISSLGTQIQEHLNLPNQEELANTFKEQSTNFANNVQAYLQNITDEVKAKSPELEDFWTNMKTKLSEAVDNLHINPETTEQVNQLRAKFQEGVQTLVTESENAAKTISENSGKVQESIAKITKQAIDIAVKASQNLNQQLQQATTPQP
Molecule B1 registered a dissociation constant Kd of 713 nM.
